The text below walks through data of the DeepSol protein solubility set.

This data set is described as follows: soluble on expression in E. coli; label from the status in PepcDB or PDB records.
Regarding “MTQVLVRNGIQAVGDGLTSLIIVGKKSVLKNVTFEGKFKEVAQKFVTDGDSWNSMISRIPASGRHPLHYELAHLITVPDASSRGNTPTNAHSIYKELKPINYPEDTKNVHFVLFAEYPDVLSHVAAIARTFCKFSMKTSGIRELNVNIDVVCDKLTNEDAVFLTDLSESVRETARLIDTPANILTTDALVDEAVKVGNATGSKITVIRGEELLKAGFGGIYHVGKAGPTPPAFVVLSHEVPGSTEHIALVGKGVVYDTGGLQIKTKTGMPNMKRDMGGAAGMLEAYSALVKHGFSQTLHACLCIVENNVSPIANKPDDIIKMLSGKTVEINNTDAEGRLILADGVFYAKETLKATTIFDMATLTGAQAWLSGRLHGAAMTNDEQLENEIIKAGKASGDLVAPMLFAPDLFFGDLKSSIADMKNSNLGKMDGPPSAVAGLFIGAHIGFGEGLRWLHLDIAAPAEVGDRGTGYGPALFSTLLGKYTSVPMLKQ”, the “soluble on expression in E. coli” value was “soluble”.

Consider “AKPIDVSRLDLRIGCIITARKHPDADSLYVEEVDVGEIAPRTVVSGLVNHVPLEQMQNRMVILLCNLKPAKMRGVLSQAMVMCASSPEKIEILAPPNGSVPGDRITFDAFPGEPDKELNPKKKIWEQIQPDLHTNDECVATYKGVPFEVKGKGVCRAQTMSNSGIKLEHHHHHH”, for which the “soluble on expression in E. coli” value is reported as “soluble”.

As to “MTQVIIDGDACPVTNSIIELTKGTGIFVTVVRSFSHFSTVIQPEHVNIIYVDDGPDAVDYRIVKLVHSDDLVVTQDYGLASLLLNKAKIVMHHKGFIYNQENINTLLEQRHASAQFRKSGGRTKGPAAFTEEDVSKFESIFSNLIHKYFLETEDLEHHHHHH”, the “soluble on expression in E. coli” value is on record as “soluble”.

In the case of “MYNGIGLQTARGSGTNGYVQSNLSHLMQARRKIEYNGEDDLRKMEAELNRKPNEEIMDHNRKRQIEVKCTEFEMLLEDKGLDDEDIERKVGEYRKNLLKQLESGELNVDEELSTKESHARRRAAANNRDKMRNALGLGEDYVPGSSMAKMNKSDVVGAAMESELPQKDDKEKLLETLRLHRKSKKKQESSSSSSSSSSSSESSSEDEKHRKDRKKKEKKQKLKEMEKRREKLRQKERELLAVSDKVKKEEPAESSDEEDSRKDQRKPREDRRRSVERQDQREDRRDRRRSPEDPRERRRSPEDRTVRRRSPERRRQQRSPSVERRKSPQRRDERRRRHDSSENERRSTATASKKSRMDELEVKQEPPSDSEDYIAKTNLAPIRVEKSAEKVEKSRKSSSESSSGSSDSDSSSDSSSSSDSSSDSE”, the “soluble on expression in E. coli” value was “not soluble”.

As to “MSTRPTTDKVKEAIFNMIGPYFSGGNGLDLFAGSGGLGIEALSRGIERVIFVDHDRKAVQTVRKNVAACGLEKRAEIYCNDAERALKAVAKRGLRFAVIFLDPPYKEKQWPTLLSSIVERQLLEPHGVVVAEHSAEAELPEEVGGLTRWKRETYGITGVTIYRWEGDGSDGEHCGLPREL”, the “soluble on expression in E. coli” value is recorded as “not soluble”.

For the sequence “MAHHHHHHMSKKRKSYENDEDVYDNKRNKKNVASSIDSYGRKVWDKEYYQKKVDEKVENDEDELILKLLPDLKKKSKLEPPPPSERKLLEERKENLLLEKNLGKVQILTQKTPKNEQGGYYCKICDCVLKDSQTYLDHINGKNHNRMLGYSMKVKKVTLDDVKKRLSLLKDKKQNKTEDVEKDPYEDAKKNLKDMQEDEERRIQKRKEKKMLKKLEKEKKKNENENENNDEESDNMNMMFKEMGLPTSFV”, the “soluble on expression in E. coli” value is given as “soluble”.

For the sequence “MKRRLDDQESPVYAAQQRRIPGSTEAFPHQHRVLAPAPPVYEAVSETMQSATGIQYSVTPSYQVSAMPQSSGSHGPAIAAVHSSHHHPTAVQPHGGQVVQSHAHPAPPVAPVQGQQQFQRLKVVFSSFSWVKKFIFSRKYWLQLVGCGGTTSNLRY”, the “soluble on expression in E. coli” value is listed as “not soluble”.

In the case of “MAEKVAVIVGPTAVGKTKLGIALAKKLGGEVISGDSMQIYKGMDIGTAKVKPDEMEGIPHHLLDIKEPCEPFSVVEFQRLCRALITEISARGRLPIIVGGTGLYIQAALYDYQFSAAPSDEAYRRALKQLAAEQGAEALHRRLEAVDPISAARIHPHNIRRVIRALEVYHCTGKPFSEWQQTEKRLLYEAAIVGLTAEREALYRRINERVDEMIAAGLIEEARALYDRGLRDCQAVQAIGYKELYDYFDGRVSLDEAIEQLKQNSRRYAKRQLTWFRNQMPVKWFDMTDAGQFAAKVQEISRYVAGKLQLEANI”, the “soluble on expression in E. coli” value is reported as “not soluble”.

With “MPLAVDLLHPEPQREIRCHKLKRLVQHPNSYFMDVKCSGCFKISTVFSHATTVVVCVGCNTVLCQPTRGKAKLTEGCSFRKKQ”, the “soluble on expression in E. coli” value is listed as “not soluble”.

Take “EMTDLQSTHKDFLFEIEEVGIKNLVYPVLVDQYQTAGTFSFSTSLTKDEKGINMSRIIESVEKHYDNGIELEFNTLYQVLRTLQTNMKQNAAGVDVSGKWFFDRYSPTTNIKAVGNADVTYGLAIDGDKVTRKELTIEATVTTLCPCSKEISEYSAHNQRGVVTVKTYINKDQNIVDDYKNKILDAMEANASSILYPILKRPDEKRVTERAYENPRFVEDLIRLIAADLVEFDWLDGFDIECRNEESIHQHDAFAKLKYRK”: the “soluble on expression in E. coli” value is “not soluble”.

Turning to “MSLSNISLTTLGGVRENGKNMYIAEIGESIFVLNVGLKYPENEQLGVDVVIPNMDYLFENSDRIAGVFLTHGHADAIGALPYLLAEAKVPVFGSELTIELAKLFVKGNDAVKKFNDFHVIDENTEIDFGGTVVSFFPTTYSVPESLGIVLKTSEGSIVYTGDFKFDQTASESYATDFARLAEIGRDGVLALLSDSANADSNIQVASESEVRDEITQTIADWEGRIIVAAVSSNLSRIQQIFDAADKTGRRIVLTGFDIENIVRTAIRLKKLSLANEILLIKPKDMSRFEDHELIILETGRMGEPINGLRKMSIGRHRYVEIKDGDLVYIATAPSIAKEAFVARVENMIYQAGGVVKLITQSLHVSGHGNVRDLQLMINLLQPKYLFPVQGEYRELDAHAKAAMAVGMLPERIFIPKKGTTMAYENGDFVPAGSVSAGDILIDGNAIGDVGNVVLRDRKVLSEDGIFIVAITVNRREKKIVARARVHTRGFVYLKKSRDILRESSELINQTVEEYLQGDDFDWADLKGKVRDNLTKYLFDQTKRRPAILPVVMEAEGHHHHHH”, the “soluble on expression in E. coli” value is reported as “not soluble”.

“MTESPTTHHGAAPPDSVATPVRPWSEFRLTPAEAAAAAALAARCAQRYDETDGPEFLLDAPVIAHELPKRLRTFMARARLDAWPHALVVRGNPVDDAALGSTPVHWRTARTPGSRPLSFLLMLYAGLLGDVFGWATQQDGRVVTDVLPIKGGEHTLVSSSSRQELGWHTEDAFSPYRADYVGLLSLRNPDGVATTLAGVPLDDLDERTLDVLFQERFLIRPDDSHLQVNNSTAQQGRVEFEGIAQAADRPEPVAILTGHRAAPHLRVDGDFSAPAEGDEEAAAALGTLRKLIDASLYELVLDQGDVAFIDNRRAVHGRRAFQPRYDGRDRWLKRINITRDLHRSRKAWAGDSRVLGQR”: the “soluble on expression in E. coli” value was “soluble”.

For “MPSGVCEPKERSPCMNKIDKLDKELEKAREKAAEWQAKIRELEKQKQEEENSQIVQAVRSLKLTPAQLMAFLNDPKNSLTASGHTDPKPEAPEKEDTAHEEN”, the “soluble on expression in E. coli” value is “not soluble”.

On to “MEKGAPQNNADEEAKVEVPPPAPKTTSAERAPEKVSAEKAQEQEKSAMGSVPIPPEREKHIKERKTGYEYSIVTINYKPGTKFGLGIKNVFNKSIYVIKVEENSLVSGIFNVADRIIDVDGEPVYDNAKCKGLLVKALKEKKVCTLLIERGITESALKDATNEMNEEHTQSVMAPPDVKSIMRKLEAHNFLRKSPSCESAAAPNPVPSAMTKNKEGKGERKACILEDGHKSVMIRMDNEENRNKLKKVEPKEPPRRLDPKTPPKPAAPEPKPEGK”, for which the “soluble on expression in E. coli” value is recorded as “not soluble”.

Regarding “SASPSLERPEKGAGKSEFRNQKPKPENQDESELLTVPDGWKEPAFSKEDNPRGLLEESSFATLFPKYRGAYLKECWPLVQKALNEHHVNATLDLIEGSMTVCTTKKTFDPYIIIRARDLIKLLARSVSFEQAVRILQDDVACDIIKIGSLVRNKERFVKRRQRLIGPKGSTLKALELLTNCYIMVQGNTVSAIGPFSGLKEVRKVVLDTMKNIHPIYNIKSLMIKRELAKDSELRSQSWERFLPQFKHKNVNKRKEPKKKTVKKEYTPFPPPQPESQIDKELASGEYFLKANQKKRQKMEAIKAKQAEAISKRQEERNKAFIPPKEKPIVKPKEASTETKIDVASIKEKVKKAKNKKLGALTAEEIALKMEADEKKKKKKK”, the “soluble on expression in E. coli” value was “soluble”.

As for “MDNYEKVRVVGRGAFGVCWLCRGKNDASHQKVIIKLINTHGMTEKEENSIQSEVNLLKKVQHPLIIGYIDSFIMDNQLGIVMQYAEGGTLERLINDQRAIKDSNMREYFPEKTVLDYFTQILIALNHMHQKNIVHRDLKPQNILMNRRKTVLKLSDFGISKELGTKSAASTVIGTPNYLSPEICESRPYNQKSDMWSLGCVLYELLQLERAFDGENLPAIVMKITRSKQNPLGDHVSNDVKMLVENLLKTHTDKRPDVSQLLSDPLVLPYLISIHCDLGRIEPPPTDKRKPSASLSSRLRTYPTQSTLRPYSLSSNAPTTHLTQLTPMPSHIDSGFFSSGRTSNQRTQSRSQVHSKY”, the “soluble on expression in E. coli” value is reported as “soluble”.

With “MKRRDILKGGLAAGALALLPRGHTQGALQNQPSLGRRYRNLIVFVYDGFSWEDYAIAQAYARRRQGRVLALERLLARYPNGLINTYSLTSYVTESSAAGNAFSCGVKTVNGGLAIHADGTPLKPFFAAAKEAGKAVGLVTTTTVTHATPASFVISNPDRNAEERIAEQYLEFGAEVYLGGGDRFFNPARRKDGKDLYAAFAAKGYGVVRTPEELVRSNATRLLGVFADGHVPYEIDRRFQGLGVPSLKEMVQAALPRLAAHRGGFVLQVEAGRIDHANHLNDAGATLWDVLAADEVLELLTAFVDRNPDTLLIVVSDHATGVGGLYGAGRSYLESSQGVDLLEPQRASFEHMLRVLGQAPEASQVKEAFRAMKGVDLEDAEAERVVRAIREKVYWPEGVRQGVQPANTMAWAMVQRDAQKPDRPNIGWSSGQHTASPVMLLLYGQGLRFVNLGLVDNTHVFRLMGEALGLRYQNPVMSEEEALEILKARPQGMRHPEDVWA”, the “soluble on expression in E. coli” value is listed as “soluble”.

In the case of “PMEQVVRIHASSGTTGKPTVVGYTQNDIDNWANIVARSLRAAGGSAKDKIHVAYGYGLFTGGLGAHYGAERLGATVIPMSGGQTEKQAQLIRDFQPDMIMVTPSYCLNLIEELERQMGGDARGCSLRVGVFGAEPWTLAMRAEIERRLGITALDIYGLSEVMGPGVAMECLETVDGPTI”, the “soluble on expression in E. coli” value is listed as “not soluble”.

Consider “MGSDKIHHHHHHTSEEREVFENQEGMHRLIPLIEAQTEEDLTPTMREYFAQIREYRKTPHVKGFGWFGNWTGKGNNAQNYLKMLPDSVDFVSLWGTRGYLSDEQKADLKFFQEVKGGKALLCWIIQDLGDQLTPKGLNATQYWVEEKGQGNFIEGVKAYANAICDSIEKYNLDGFDIDYEPGYGHSGTLANYQTISPSGNNKMQVFIETLSARLRPAGRMLVMDGQPDLLSTETSKLVDHYIYQAYWESSTSSVIYKINKPNLDDWERKTIITVEFEQGWKTGGITYYTSVRPELNSMEGNQILDYATLDLPSGKRIGGIGTYHMEYDYPNDPPYKWLRKALYFGNQVYPGKFD”, for which the “soluble on expression in E. coli” value was “not soluble”.

With “SIHSMDKPIESKEGNVSVGKFKLSDSSINNPEEIISVPSSTTEIEKVEMKPGRGEGLNPELLPASVSELLIPSPFQPQIPDGNNSSVEFHPSKVVLIGTAHVSEKSVNEVRSAIRNLKPDIVAVELCRARYDSLKGNVPETNQVPIKEILTEGKVYYYLVHWLLAYVQKKIGEDMGVKPGSEMISAIEEAEASGAKIALIDRDIQVTLQRFWGRMKFTEKIKMLGSLIGGLIGIGKGAEIDIDQITQQDVVTALVSELREFAPTAAETLIDERDAYLAGSILRTAAGGNKTIVAVIGAGHKPGVINYLENPKSLPPLNSLMQIPKKR”, the “soluble on expression in E. coli” value is on record as “not soluble”.
